Here are results for three molecules from patent US20260167714A1 (COHERUS BIOSCIENCES, published 2026).

Broadly, the kon is the second-order rate constant of association. In general, Kd refers to the equilibrium constant for the complex coming apart. As a reminder, the KD is the constant that tells how readily two partners part at equilibrium. The term koff denotes the rate constant with which the complex falls apart. Broadly, the IC50 is the midpoint of a concentration-inhibition curve. Lower therefore signals inhibition by little substance.

The target of assay [1] is T1, recombinant human ILT4 (LILRB2) (human, UniProt Q8N423 22-460).
T1 construct: Bought protein (Acro Biosystems or R&D Systems); also called ILTR4
The assay is described as follows: SPR, Biacore T200, mAb captured on anti-Fc, ILT4 injected, medium resolution, 25 C. How it is done: (§1) Label-free SPR analysis on a Biacore T200 instrument was utilized to measure antibody affinity to ILT4. CM4 sensor chips from Cytiva Inc. were utilized for all medium resolution analyses. Either anti-mouse Fc specific or anti-human Fc specific capture surfaces were prepared using standard amine coupling chemistry. Mouse, Chimera or Humanized mAbs were captured to their respective surfaces and ILT4 was injected across the surfaces from 101 nM to 0.79 nM in a 2-fold serial dilution series at a flow rate of 100 μL/min. The association phase was followed for 90 sec. while the dissociation phase was followed for 1200 sec. due to the medium resolution analysis implemented here. The sensorgrams were double-referenced and fit globally to a 1:1 interaction model with a term included for mass transport, and the equilibrium dissociation constant was calculated as KD=koff/kₒₙ. […] All kinetic experiments were performed at 25° C. in a buffer consisting of Hepes-buffered saline, pH 7.4, with 0.05% polysorbate 20 (HBS-P+) and 100 μg/ml Bovine Serum Albumin (BSA).
(In SPR one partner is held on a chip, and binding of the other changes the refractive index at the surface.)

Assay [2] addresses T1, recombinant human ILT4 (LILRB2). The assay can be described thus: SPR, high resolution kinetics, triplicate, LALA antibody; 95% CI in parentheses.
The target is the same in assay [3]. The assay is described as follows: KinExA, solution equilibrium, n-curve analysis. How it is done: Kinetic Exclusion Assay (KinExA®) was performed to measure the equilibrium binding affinity and kinetics between human ILT4 and four humanized LALA-Fc modified antibodies in solution. For affinity analysis, the equilibrium dissociation constant, KD, was experimentally determined and reflects the strength of the binding interaction. The rate of association, kₒₙ, was also experimentally determined, while the rate of dissociation, koff, is calculated based on the following equation: koff=KD×kₒₙ
The binding affinity (KD), association (kₒₙ), and dissociation rate constants (koff) were measured for 4 different Humanized LALA IgG antibodies to ILT4 using KinExA. An n-curve analysis of at least two different curves, run at two different CBP concentrations, was used to determine the KD of the interactions The ILT4 was used as the concentration reference for all curves. All of the binding systems have low error and well defined 95% confidence intervals giving confidence to the measurements: […]
For orientation: A kinetic exclusion assay measures how much of one partner remains free in solution.

Assay [4] has the same target. The assay can be described thus: SPR, Biacore 8K, mAb captured on anti-human Fc, LILRB2 at 100 nM; legend: ++++ tight binding (<100 pM KD). How it is done:
(§2) SPR was used to determine the specificity of four humanized anti-ILT4 mAbs for binding to LILRB2 and to determine any cross-reactivity with nine other LILRA and LILRB family members. LILR proteins were purchased from Acro Biosystems or R&D Systems, with sequence provided below. The studies were performed with a Biacore 8K instrument using a CM4 sensor chip with a running buffer of HBS-P+, 100 μg/mL BSA. Anti-human Fc specific capture surfaces were prepared using standard amine coupling chemistry. MAb was captured to flow cell 2 with flow cell 1 serving as the reference flow cell. Each of the nine family members and LILRB2 were injected at 100 nM at 30 μL/min for 90 sec with 240 sec of dissociation. […] All sensorgrams were doubled-referenced during processing of the data.

The target is the same in assay [5]. The assay can be described thus: SPR, high resolution kinetics, triplicate, LALA antibody.
The next assay deals with T2, LILRA6 (human, UniProt Q6PI73 24-447).
T2 construct: Bought protein; limits of the extracellular domain are marked by bold type not visible here; whole entry named; also called recombinant human LILRA6
The assay can be described thus: SPR, Biacore 8K, mAb captured on anti-human Fc, analyte injected. How it is done:
as §2

For a further assay, the target named is T3, LILRA3 (human, UniProt Q8N6C8 24-439).
T3 construct: Bought protein; limits of the part used are marked by bold type not visible here; whole entry named; also called recombinant human LILRA3
The description is as above. How it is done:
as §2

The target in a further assay is T4, LILRA4 (human, UniProt P59901 24-446).
T4 construct: Bought protein; limits of the extracellular domain are marked by bold type not visible here; whole entry named; also called recombinant human LILRA4
Described as above. How it is done:
as §2

A further assay has as its target T5, LILRA5 (human, UniProt A6NI73 42-268).
T5 construct: Bought protein; limits of the extracellular domain are marked by bold type not visible here; whole entry named; also called recombinant human LILRA5
The description is as above. How it is done:
as §2

The next assay addresses T6, LILRB3 (human, UniProt O75022 24-443).
T6 construct: Bought protein; limits of the extracellular domain are marked by bold type not visible here; whole entry named; also called recombinant human LILRB3; ILT5
The assay is described as above. How it is done:
as §2

In a further assay the target is T7, LILRB1 (human, UniProt Q8NHL6 24-461).
T7 construct: Bought protein; limits of the extracellular domain are marked by bold type not visible here; whole entry named; also called recombinant human LILRB1; ILT2
The description is as above. How it is done: as §2

A further assay concerns the target T8, LILRB4 (human, UniProt Q8NHJ6 22-259).
T8 construct: Bought protein; limits of the extracellular domain are marked by bold type not visible here; whole entry named; also called recombinant human LILRB4; ILT3
The description is as above. How it is done:
as §2

In the next assay the target is T9, LILRA2 (human, UniProt Q8N149 24-449).
T9 construct: Bought protein; limits of the extracellular domain are marked by bold type not visible here; whole entry named; also called recombinant human LILRA2
The assay is described as above. How it is done: as §2

A further assay has as its target T10, LILRA1 (human, UniProt O75019 17-461).
T10 construct: Bought protein; limits of the extracellular domain are marked by bold type not visible here; whole entry named; also called recombinant human LILRA1
Described as above. How it is done: as §2

Assay [6] has as its target T1, recombinant human ILT4 (LILRB2). The assay can be described thus: SPR, Biacore T200, medium resolution; koff held at its limit of 4.27e-5 s^-1. How it is done:
as §1

Assay [7] addresses T11, human ILT4 expressed on cells (human, UniProt Q8N423 22-597).
T11 construct: whole, on cells; The same entry is used for endogenous ILT4 of human macrophages; also called CHO-S/ILT4 cells; ILT4-CHO cells
The assay is described as follows: flow based HLA-G blocking assay.

Assay [8] addresses T11, human ILT4 expressed on cells. The assay is described as follows: cell-based or functional assay.
Assay [9] shares this target. The assay is described as follows: flow cytometry, blockade of PE-HLA-G tetramer (5 µg/ml) binding to CHO-S/ILT4 cells, experiment 2. How it is done: (§3) In the second blocking experiment, the primary antibody dilutions were made by diluting antibody to 15 μg/ml in FACS buffer. Three independent sets of eleven 2.5-fold serial dilutions were then made in FACS buffer from 15 μg/ml to 0.002 μg/ml. Each dilution set was handled independently, and 50 μl from each was added to cells in duplicate. Control wells received FACS buffer with no antibody. Wells were mixed and incubated for 30 minutes at 4 degrees C. Cells were washed twice in FACS buffer.
(§4) In both blocking experiments, phycoerythrin (PE)-conjugated HLA-G tetramer was diluted in FACS buffer to 5 μg/ml and 100 μl per well was added to cells. Cells were incubated at 4 degrees C. for 30 minutes, washed twice in FACS buffer, and resuspended in 250 μl FACS buffer with 0.1 μg/ml propidium iodide.
(§5) Cells were acquired on an Attune flow cytometer, with 5000 propidium iodide-negative cells collected per sample, and MFI was recorded. Relative blocking activity was calculated with the following formula: 100−(Sample MFI−Background MFI)/(Top MFI−Background MFI)*100. Prism software (Graphpad) was used to plot MFI and relative blocking activity for each sample. The blocking potency for each antibody, represented as IC₅₀, was calculated with Prism software.
(Flow cytometry measures light scatter and fluorescence of single cells or particles in a stream.)

For assay [10] the target is unchanged. The assay is described as follows: flow cytometry blocking assay: ILT4-expressing CHO cells preincubated with antibody, then PE-HLA-G; HLA-G binding MFI falls from about 105000 (no antibody) to near 0. How it is done:
as §3, §4, §5

Assay [11] has the same target. The assay is described as follows: flow cytometry, blockade of PE-HLA-G tetramer binding to CHO-S/ILT4 cells, experiment 2. How it is done:
as §3, §4, §5

T11 sequence (Q8N423 22-597): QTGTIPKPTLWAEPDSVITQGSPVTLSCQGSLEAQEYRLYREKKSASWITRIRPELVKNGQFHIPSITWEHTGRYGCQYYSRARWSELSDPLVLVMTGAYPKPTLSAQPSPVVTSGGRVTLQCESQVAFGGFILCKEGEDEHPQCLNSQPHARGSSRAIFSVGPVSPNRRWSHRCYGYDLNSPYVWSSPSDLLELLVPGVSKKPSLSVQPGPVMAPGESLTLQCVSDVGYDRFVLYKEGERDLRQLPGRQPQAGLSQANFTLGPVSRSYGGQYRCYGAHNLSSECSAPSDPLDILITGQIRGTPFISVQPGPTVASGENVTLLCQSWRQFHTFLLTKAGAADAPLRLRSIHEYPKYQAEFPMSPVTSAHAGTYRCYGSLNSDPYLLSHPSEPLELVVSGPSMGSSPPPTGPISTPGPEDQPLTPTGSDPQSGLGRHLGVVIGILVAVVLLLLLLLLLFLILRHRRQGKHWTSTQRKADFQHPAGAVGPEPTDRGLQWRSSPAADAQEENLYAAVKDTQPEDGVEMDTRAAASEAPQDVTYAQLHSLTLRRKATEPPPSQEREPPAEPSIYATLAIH
T1 sequence (Q8N423 other isoform, or with tags, fused parts or gaps limits assumed): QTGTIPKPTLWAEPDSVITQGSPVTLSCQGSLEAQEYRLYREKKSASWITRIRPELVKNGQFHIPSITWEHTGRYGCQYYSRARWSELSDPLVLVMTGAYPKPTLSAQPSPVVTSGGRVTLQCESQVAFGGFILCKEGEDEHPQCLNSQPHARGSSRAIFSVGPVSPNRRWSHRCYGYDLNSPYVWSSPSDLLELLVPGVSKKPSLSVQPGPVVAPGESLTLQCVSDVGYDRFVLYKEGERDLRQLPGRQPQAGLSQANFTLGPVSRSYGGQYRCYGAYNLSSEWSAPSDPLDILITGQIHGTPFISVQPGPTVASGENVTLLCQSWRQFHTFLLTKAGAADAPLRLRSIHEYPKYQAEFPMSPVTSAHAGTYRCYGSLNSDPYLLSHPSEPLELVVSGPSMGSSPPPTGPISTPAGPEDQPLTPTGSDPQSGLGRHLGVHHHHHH
T8 sequence (Q8NHJ6 other isoform, or with tags, fused parts or gaps): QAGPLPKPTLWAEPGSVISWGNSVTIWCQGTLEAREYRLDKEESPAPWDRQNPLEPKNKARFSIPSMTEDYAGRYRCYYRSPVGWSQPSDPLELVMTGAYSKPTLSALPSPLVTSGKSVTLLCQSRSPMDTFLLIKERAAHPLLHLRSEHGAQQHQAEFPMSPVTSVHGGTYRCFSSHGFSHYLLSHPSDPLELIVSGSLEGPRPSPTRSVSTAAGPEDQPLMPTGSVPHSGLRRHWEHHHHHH
T3 sequence (Q8N6C8 24-439 A105V limits assumed): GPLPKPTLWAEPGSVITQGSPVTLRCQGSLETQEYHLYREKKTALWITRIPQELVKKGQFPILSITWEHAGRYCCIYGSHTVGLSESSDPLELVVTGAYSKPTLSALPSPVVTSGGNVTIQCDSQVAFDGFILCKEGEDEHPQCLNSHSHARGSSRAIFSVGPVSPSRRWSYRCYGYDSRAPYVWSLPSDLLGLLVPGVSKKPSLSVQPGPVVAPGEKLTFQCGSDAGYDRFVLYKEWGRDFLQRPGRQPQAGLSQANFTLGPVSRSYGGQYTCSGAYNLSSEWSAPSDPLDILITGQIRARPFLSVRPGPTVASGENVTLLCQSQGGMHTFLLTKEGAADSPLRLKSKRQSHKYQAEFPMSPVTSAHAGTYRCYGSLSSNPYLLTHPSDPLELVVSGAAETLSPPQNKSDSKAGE
T9 sequence (Q8N149 other isoform, or with tags, fused parts or gaps): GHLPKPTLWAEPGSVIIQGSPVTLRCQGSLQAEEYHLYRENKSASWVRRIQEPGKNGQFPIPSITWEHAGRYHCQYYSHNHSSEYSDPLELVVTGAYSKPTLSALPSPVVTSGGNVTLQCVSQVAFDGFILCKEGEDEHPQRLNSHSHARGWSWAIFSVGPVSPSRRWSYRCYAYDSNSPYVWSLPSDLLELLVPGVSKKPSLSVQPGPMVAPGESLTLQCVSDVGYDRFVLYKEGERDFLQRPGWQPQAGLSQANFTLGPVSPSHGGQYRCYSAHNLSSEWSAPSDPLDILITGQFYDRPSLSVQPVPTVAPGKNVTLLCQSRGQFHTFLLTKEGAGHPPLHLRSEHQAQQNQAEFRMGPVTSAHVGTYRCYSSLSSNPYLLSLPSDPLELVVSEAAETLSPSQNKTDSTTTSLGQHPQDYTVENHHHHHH
T10 sequence (O75019 other isoform, or with tags, fused parts or gaps): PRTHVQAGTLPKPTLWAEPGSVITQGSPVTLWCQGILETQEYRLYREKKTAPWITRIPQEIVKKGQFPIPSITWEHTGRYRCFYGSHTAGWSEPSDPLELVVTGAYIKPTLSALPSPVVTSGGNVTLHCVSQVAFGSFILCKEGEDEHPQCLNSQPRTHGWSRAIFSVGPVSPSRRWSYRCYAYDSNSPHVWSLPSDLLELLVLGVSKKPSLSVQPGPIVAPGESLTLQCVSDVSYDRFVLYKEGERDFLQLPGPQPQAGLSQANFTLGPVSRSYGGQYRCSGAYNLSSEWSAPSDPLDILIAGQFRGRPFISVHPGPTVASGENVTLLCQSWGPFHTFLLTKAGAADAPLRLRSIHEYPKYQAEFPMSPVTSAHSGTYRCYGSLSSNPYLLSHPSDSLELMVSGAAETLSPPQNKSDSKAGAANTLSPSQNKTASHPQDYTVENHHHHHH
T7 sequence (Q8NHL6 other isoform, or with tags, fused parts or gaps): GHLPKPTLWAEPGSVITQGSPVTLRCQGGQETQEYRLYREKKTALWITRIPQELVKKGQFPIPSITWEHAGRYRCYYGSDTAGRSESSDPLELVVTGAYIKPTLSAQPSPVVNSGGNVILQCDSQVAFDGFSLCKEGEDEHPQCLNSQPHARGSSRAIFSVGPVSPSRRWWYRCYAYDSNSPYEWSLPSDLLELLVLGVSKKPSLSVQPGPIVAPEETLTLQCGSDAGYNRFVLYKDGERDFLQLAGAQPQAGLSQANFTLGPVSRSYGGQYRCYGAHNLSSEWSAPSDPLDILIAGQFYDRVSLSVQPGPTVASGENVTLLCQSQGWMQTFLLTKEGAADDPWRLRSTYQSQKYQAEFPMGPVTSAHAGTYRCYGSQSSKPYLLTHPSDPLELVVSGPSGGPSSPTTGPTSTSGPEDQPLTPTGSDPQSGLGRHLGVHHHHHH
T6 sequence (O75022 other isoform, or with tags, fused parts or gaps): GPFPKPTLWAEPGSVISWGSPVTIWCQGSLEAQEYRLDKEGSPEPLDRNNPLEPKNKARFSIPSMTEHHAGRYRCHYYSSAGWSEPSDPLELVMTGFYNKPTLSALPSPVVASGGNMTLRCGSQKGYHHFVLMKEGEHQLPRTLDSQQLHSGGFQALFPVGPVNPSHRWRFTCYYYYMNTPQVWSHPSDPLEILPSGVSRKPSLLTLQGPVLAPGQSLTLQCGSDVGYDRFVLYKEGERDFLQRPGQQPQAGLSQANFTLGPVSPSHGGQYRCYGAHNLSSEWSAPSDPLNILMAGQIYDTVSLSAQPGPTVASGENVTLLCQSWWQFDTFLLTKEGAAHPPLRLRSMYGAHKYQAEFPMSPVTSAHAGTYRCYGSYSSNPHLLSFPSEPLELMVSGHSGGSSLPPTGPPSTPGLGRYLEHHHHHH
T4 sequence (P59901 other isoform, or with tags, fused parts or gaps): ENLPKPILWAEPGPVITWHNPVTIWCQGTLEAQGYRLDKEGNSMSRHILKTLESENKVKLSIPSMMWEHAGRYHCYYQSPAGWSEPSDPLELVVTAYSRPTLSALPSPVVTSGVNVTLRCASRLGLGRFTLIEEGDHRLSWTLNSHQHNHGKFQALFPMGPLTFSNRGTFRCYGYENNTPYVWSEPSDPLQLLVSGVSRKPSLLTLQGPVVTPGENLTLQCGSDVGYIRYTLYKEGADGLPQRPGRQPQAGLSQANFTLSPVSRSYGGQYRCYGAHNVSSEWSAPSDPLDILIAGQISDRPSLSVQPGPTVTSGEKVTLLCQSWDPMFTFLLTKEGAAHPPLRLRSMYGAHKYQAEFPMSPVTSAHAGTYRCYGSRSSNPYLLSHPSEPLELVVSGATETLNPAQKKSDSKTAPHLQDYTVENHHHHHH
T2 sequence (Q6PI73 other isoform, or with tags, fused parts or gaps): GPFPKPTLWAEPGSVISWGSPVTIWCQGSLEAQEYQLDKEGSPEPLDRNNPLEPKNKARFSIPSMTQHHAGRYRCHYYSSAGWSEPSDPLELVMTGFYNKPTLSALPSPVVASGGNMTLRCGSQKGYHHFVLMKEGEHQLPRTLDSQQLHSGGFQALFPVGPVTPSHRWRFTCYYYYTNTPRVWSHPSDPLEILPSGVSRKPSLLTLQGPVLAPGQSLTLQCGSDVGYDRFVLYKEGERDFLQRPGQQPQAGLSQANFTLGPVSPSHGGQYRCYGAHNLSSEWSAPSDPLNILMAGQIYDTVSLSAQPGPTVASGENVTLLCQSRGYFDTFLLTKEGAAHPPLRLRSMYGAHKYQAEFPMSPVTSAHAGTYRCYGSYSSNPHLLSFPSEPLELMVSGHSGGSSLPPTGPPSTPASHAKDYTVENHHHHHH
T5 sequence (A6NI73 other isoform, or with tags, fused parts or gaps): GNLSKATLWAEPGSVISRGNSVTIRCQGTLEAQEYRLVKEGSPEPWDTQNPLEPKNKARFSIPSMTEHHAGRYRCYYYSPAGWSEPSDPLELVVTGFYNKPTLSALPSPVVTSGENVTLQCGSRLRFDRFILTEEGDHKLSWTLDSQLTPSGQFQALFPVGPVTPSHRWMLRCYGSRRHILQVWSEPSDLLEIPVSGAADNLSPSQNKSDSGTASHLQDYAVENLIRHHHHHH

B1: Hz77-LALA (antibody, human IgG1, kappa, L234A L235A, V domains shown)
VH: QVQLVQSGAEVKKPGSSVKVSCKASGYSFTGYSVNWVRQAPGQGLEWIGRINPYNGDIFNNQKFKGRATITVDKSTSTAYMELSSLRSEDTAVYYCARGTTVGGAWFAYWGQGTLVTVSS
VL: DIVMTQSPDSLAVSLGERATINCRASESVDSYGYSFLHWYQQKPGQPPKLLIYLASNLESGIPDRFSGSGSGTDFTLTISSLQAEDVAVYYCQQSNEDLMYTFGGGTKVEIKR
notes: Humanized L77S2, human IgG1 L234A/L235A, kappa; also called Humanized 77_01; Hz 77 01
Take B1: the figures for the kon in [1] and in assay [2] were 835000 M⁻¹ s⁻¹ and 4.78e+06 M⁻¹ s⁻¹, respectively. Moreover, the Kd was 0.00546 nM in assay [3], 0.0089 nM in [5] and no more than 0.052 nM in assay [6]. In assay [4], the KD was less than 0.1 nM. The values for the koff in [5] and in [6] were 4.24e-05 s⁻¹ and no more than 4.27e-05 s⁻¹, respectively. The binding result with LILRA6, with LILRA3, with LILRA4, in the assay with LILRA5, with LILRB3 and in the assay with LILRB1 was “no binding (tested: 100 nM)” each time. Besides, the binding result in the assay with LILRB4, in the assay with LILRA2 and with LILRA1 was “no binding (tested: 100 nM)” in each case. In addition, in assay [7], inhibition was half-maximal at 0.176 µg/mL (IC50).

B2: L45S4 (antibody, IgG2a, V domains shown)
VH: EVQLQQSGPELVKPGASVKISCKASGYTFTDYYMNWVKQSHGKSLEWIGDINPNNGGTSYNQKFKGKATLTVDKSSSTAYMELRSLTSEDSAVYYCARGGAELTGTYWYFDVWGTGTTVTVSS
VL: DIQMTQSPASLSISVGETVTITCRASENIYSNLAWYQQKQGKSPQVLVYGATNLADGVPSRFSGSGSGTQYSLKIKSLQSEDFGSYYCQHFWDSPFTFGSGTKLEIK
notes: also called Murine 45; mouse anti-human ILT4 antibody L45S4
B2: in [1], the Kd stood at 0.21 nM, the dissociation rate constant (koff) turned out to be 8.4e-05 s⁻¹ and the kon is 401000 M⁻¹ s⁻¹. In addition, in [8], the “IL-6 secretion by LPS-stimulated M2 macrophages (MSD), fold over control” value was found to be 2 fold. Further, the half-maximal inhibitory concentration (IC50) in assay [9] turned out to be 0.044 µg/mL. Moreover, the 50% inhibitory concentration (IC50) in [10] stood at 0.071 µg/mL. For the same molecule, in assay [11], the “fold decrease of PE-HLA-G MFI” value is no more than 69 fold.

B3: L41S5 (antibody, IgG2a, V domains shown)
VH: QVQLQQSGAELVKPGASVKISCKASGYAFSSYWMNWVKQRPGKGLEWIGQIYPGHGDTNYNGKFKGKATLTADKSSSTAYMQLSSLTSEDSAVYFCAKEGSELGRLFAYWGQGTLVTVSA
VL: QIVLTQSPALMSASPGEKVTMTCSASSSVSFMYWYQQKPRSSPKPWIYLTSNLASGVPARFSGSGSGTSYSLTISSMEAEDAATYYCQQWSSNPPTFGGGTKLEIK
notes: also called mouse anti-human ILT4 antibody L41S5
Regarding B3, in assay [9], the IC50 was found to be 0.134 µg/mL. The “fold decrease of PE-HLA-G MFI” value in [11] was no more than 14 fold.
